Data on one substance can be found in patent publication US20260224624A1.

The target of this assay is recombinant human TGFβ1 (rhTGFβ) (human) (UniProt P01137). Put plainly: cell-based or functional assay.
Chain of UniProt P01137 (P01137 279-390 limits assumed): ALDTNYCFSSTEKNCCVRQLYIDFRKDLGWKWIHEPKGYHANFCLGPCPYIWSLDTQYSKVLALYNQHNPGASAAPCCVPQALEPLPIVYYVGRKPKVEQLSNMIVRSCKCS

For the substance “TGFβ-switch receptor (SwR): extracellular domains of TGFβRI and TGFβRII fused to the transmembrane and intracellular domains of the IL-2/IL-15 receptor β and γ chains”, the expansion of JK59 SwR-STEAP1 CAR T cells cultured 21 days with rhTGFβ was found to be 15 fold; the expansion of JK69 SwR-STEAP1 CAR T cells cultured 21 days with rhTGFβ is 33 fold; the phosphorylation level of STAT5 (pY694) in CD3+ JK59 CAR T cells treated with rhTGFβ at 10 ng/ml for 15 min, flow cytometry was 60%.
